# According to paper PMC3758794 (Cell biochemistry and biophysics, 2013):
# B1: UBE2W-131Δ (truncation following Y131) (domain or fragment, human, UniProt Q96B02 1-131, looked up)
# chain: MASMQKRLQKELLALQNDPPPGMTLNEKSVQNSITQWIVDMEGAPGTLYEGEKFQLLFKFSSRYPFDSPQVMFTGENIPVHPHVYSNGHICLSILTEDWSPALSVQSVCLSIISMLSSCKEKRRPPDNSFY
# Experiments:
# UBE2W-WT (human) = UBE2W-WT (human) (UniProt Q96B02); test: SEC
# SEC = target: the molecule itself; test: SEC
Molecule,stoichiometry N (UBE2W-WT (human)),stoichiometry N (SEC)
UBE2W-WT (from UniProt Q96B02 1-151) (enzyme),2,
B1,,2
